Source: patent US12679878B2, “CRF2 receptor agonists and their use in therapy” (SANOFI, priority 2020, dated 2026)
Starred links: 1 amine or outer side, 2 acyl side, 3 side chain; linkers in the order of their positions; H or OH if unused. Non-standard residues stand in square brackets, D forms with d. Groups on a side chain read outwards from the residue. No end group written: not given here. *: point of attachment. C18 diacid = O=C(O)CCCCCCCCCCCCCCCCC(=O)*; γGlu = O=C(O)[C@H](CCC(=O)[*:2])N[*:1]; AEEA = NCCOCCOCC(=O)O; Aib = CC(C)(N)C(=O)O

B1: peptide of SEQ ID NO: 146 (peptide)
peptide: FTLSLDVPIKLK([AEEA-AEEA-γGlu-C18 diacid])QILLKQERQKKQRQKAKKNKQILERV-NH2
modifications: N-terminus assumed
SMILES: CC[C@H](C)[C@H](NC(=O)[C@H](CCC(N)=O)NC(=O)[C@H](CCCCNC(=O)COCCOCCNC(=O)COCCOCCNC(=O)CC[C@H](NC(=O)CCCCCCCCCCCCCCCCC(=O)O)C(=O)O)NC(=O)[C@H](CC(C)C)NC(=O)[C@H](CCCCN)NC(=O)[C@@H](NC(=O)[C@@H]1CCCN1C(=O)[C@@H](NC(=O)[C@H](CC(=O)O)NC(=O)[C@H](CC(C)C)NC(=O)[C@H](CO)NC(=O)[C@H](CC(C)C)NC(=O)[C@@H](NC(=O)[C@@H](N)Cc1ccccc1)[C@@H](C)O)C(C)C)[C@@H](C)CC)C(=O)N[C@@H](CC(C)C)C(=O)N[C@@H](CC(C)C)C(=O)N[C@@H](CCCCN)C(=O)N[C@@H](CCC(N)=O)C(=O)N[C@@H](CCC(=O)O)C(=O)N[C@@H](CCCNC(=N)N)C(=O)N[C@@H](CCC(N)=O)C(=O)N[C@@H](CCCCN)C(=O)N[C@@H](CCCCN)C(=O)N[C@@H](CCC(N)=O)C(=O)N[C@@H](CCCNC(=N)N)C(=O)N[C@@H](CCC(N)=O)C(=O)N[C@@H](CCCCN)C(=O)N[C@@H](C)C(=O)N[C@@H](CCCCN)C(=O)N[C@@H](CCCCN)C(=O)N[C@@H](CC(N)=O)C(=O)N[C@@H](CCCCN)C(=O)N[C@@H](CCC(N)=O)C(=O)N[C@H](C(=O)N[C@@H](CC(C)C)C(=O)N[C@@H](CCC(=O)O)C(=O)N[C@@H](CCCNC(=N)N)C(=O)N[C@H](C(N)=O)C(C)C)[C@@H](C)CC
B2: peptide of SEQ ID NO: 166 (peptide)
peptide: Ac-IVLSLD[dV]PIKLK([AEEA-AEEA-γGlu-C18 diacid])QILLEQERQK[Aib]QREQAEKNEQILEQV-NH2
SMILES: CC[C@H](C)[C@H](NC(C)=O)C(=O)N[C@H](C(=O)N[C@@H](CC(C)C)C(=O)N[C@@H](CO)C(=O)N[C@@H](CC(C)C)C(=O)N[C@@H](CC(=O)O)C(=O)N[C@@H](C(=O)N1CCC[C@H]1C(=O)N[C@H](C(=O)N[C@@H](CCCCN)C(=O)N[C@@H](CC(C)C)C(=O)N[C@@H](CCCCNC(=O)COCCOCCNC(=O)COCCOCCNC(=O)CC[C@H](NC(=O)CCCCCCCCCCCCCCCCC(=O)O)C(=O)O)C(=O)N[C@@H](CCC(N)=O)C(=O)N[C@H](C(=O)N[C@@H](CC(C)C)C(=O)N[C@@H](CC(C)C)C(=O)N[C@@H](CCC(=O)O)C(=O)N[C@@H](CCC(N)=O)C(=O)N[C@@H](CCC(=O)O)C(=O)N[C@@H](CCCNC(=N)N)C(=O)N[C@@H](CCC(N)=O)C(=O)N[C@@H](CCCCN)C(=O)NC(C)(C)C(=O)N[C@@H](CCC(N)=O)C(=O)N[C@@H](CCCNC(=N)N)C(=O)N[C@@H](CCC(=O)O)C(=O)N[C@@H](CCC(N)=O)C(=O)N[C@@H](C)C(=O)N[C@@H](CCC(=O)O)C(=O)N[C@@H](CCCCN)C(=O)N[C@@H](CC(N)=O)C(=O)N[C@@H](CCC(=O)O)C(=O)N[C@@H](CCC(N)=O)C(=O)N[C@H](C(=O)N[C@@H](CC(C)C)C(=O)N[C@@H](CCC(=O)O)C(=O)N[C@@H](CCC(N)=O)C(=O)N[C@H](C(N)=O)C(C)C)[C@@H](C)CC)[C@@H](C)CC)[C@@H](C)CC)C(C)C)C(C)C
B3: peptide of SEQ ID NO: 165 (peptide)
peptide: Ac-IVLSLD[dV]PIKLK([AEEA-AEEA-γGlu-C18 diacid])QILLEQARQK[Aib]QREQAEKNEQILEQV-NH2
SMILES: CC[C@H](C)[C@H](NC(C)=O)C(=O)N[C@H](C(=O)N[C@@H](CC(C)C)C(=O)N[C@@H](CO)C(=O)N[C@@H](CC(C)C)C(=O)N[C@@H](CC(=O)O)C(=O)N[C@@H](C(=O)N1CCC[C@H]1C(=O)N[C@H](C(=O)N[C@@H](CCCCN)C(=O)N[C@@H](CC(C)C)C(=O)N[C@@H](CCCCNC(=O)COCCOCCNC(=O)COCCOCCNC(=O)CC[C@H](NC(=O)CCCCCCCCCCCCCCCCC(=O)O)C(=O)O)C(=O)N[C@@H](CCC(N)=O)C(=O)N[C@H](C(=O)N[C@@H](CC(C)C)C(=O)N[C@@H](CC(C)C)C(=O)N[C@@H](CCC(=O)O)C(=O)N[C@@H](CCC(N)=O)C(=O)N[C@@H](C)C(=O)N[C@@H](CCCNC(=N)N)C(=O)N[C@@H](CCC(N)=O)C(=O)N[C@@H](CCCCN)C(=O)NC(C)(C)C(=O)N[C@@H](CCC(N)=O)C(=O)N[C@@H](CCCNC(=N)N)C(=O)N[C@@H](CCC(=O)O)C(=O)N[C@@H](CCC(N)=O)C(=O)N[C@@H](C)C(=O)N[C@@H](CCC(=O)O)C(=O)N[C@@H](CCCCN)C(=O)N[C@@H](CC(N)=O)C(=O)N[C@@H](CCC(=O)O)C(=O)N[C@@H](CCC(N)=O)C(=O)N[C@H](C(=O)N[C@@H](CC(C)C)C(=O)N[C@@H](CCC(=O)O)C(=O)N[C@@H](CCC(N)=O)C(=O)N[C@H](C(N)=O)C(C)C)[C@@H](C)CC)[C@@H](C)CC)[C@@H](C)CC)C(C)C)C(C)C
B4: peptide of SEQ ID NO: 167 (peptide)
peptide: Ac-IVLSLD[dV]PIGLK([AEEA-AEEA-γGlu-C18 diacid])QILLEQERQK[Aib]QREQAEKNEQILEQV-NH2
SMILES: CC[C@H](C)[C@H](NC(C)=O)C(=O)N[C@H](C(=O)N[C@@H](CC(C)C)C(=O)N[C@@H](CO)C(=O)N[C@@H](CC(C)C)C(=O)N[C@@H](CC(=O)O)C(=O)N[C@@H](C(=O)N1CCC[C@H]1C(=O)N[C@H](C(=O)NCC(=O)N[C@@H](CC(C)C)C(=O)N[C@@H](CCCCNC(=O)COCCOCCNC(=O)COCCOCCNC(=O)CC[C@H](NC(=O)CCCCCCCCCCCCCCCCC(=O)O)C(=O)O)C(=O)N[C@@H](CCC(N)=O)C(=O)N[C@H](C(=O)N[C@@H](CC(C)C)C(=O)N[C@@H](CC(C)C)C(=O)N[C@@H](CCC(=O)O)C(=O)N[C@@H](CCC(N)=O)C(=O)N[C@@H](CCC(=O)O)C(=O)N[C@@H](CCCNC(=N)N)C(=O)N[C@@H](CCC(N)=O)C(=O)N[C@@H](CCCCN)C(=O)NC(C)(C)C(=O)N[C@@H](CCC(N)=O)C(=O)N[C@@H](CCCNC(=N)N)C(=O)N[C@@H](CCC(=O)O)C(=O)N[C@@H](CCC(N)=O)C(=O)N[C@@H](C)C(=O)N[C@@H](CCC(=O)O)C(=O)N[C@@H](CCCCN)C(=O)N[C@@H](CC(N)=O)C(=O)N[C@@H](CCC(=O)O)C(=O)N[C@@H](CCC(N)=O)C(=O)N[C@H](C(=O)N[C@@H](CC(C)C)C(=O)N[C@@H](CCC(=O)O)C(=O)N[C@@H](CCC(N)=O)C(=O)N[C@H](C(N)=O)C(C)C)[C@@H](C)CC)[C@@H](C)CC)[C@@H](C)CC)C(C)C)C(C)C
B5: peptide of SEQ ID NO: 164 (peptide)
peptide: Ac-IVLSLD[dV]PIGLK([AEEA-AEEA-γGlu-C18 diacid])QILLEQERQK[Aib]QREQAEKNKQILEQV-NH2
SMILES: CC[C@H](C)[C@H](NC(C)=O)C(=O)N[C@H](C(=O)N[C@@H](CC(C)C)C(=O)N[C@@H](CO)C(=O)N[C@@H](CC(C)C)C(=O)N[C@@H](CC(=O)O)C(=O)N[C@@H](C(=O)N1CCC[C@H]1C(=O)N[C@H](C(=O)NCC(=O)N[C@@H](CC(C)C)C(=O)N[C@@H](CCCCNC(=O)COCCOCCNC(=O)COCCOCCNC(=O)CC[C@H](NC(=O)CCCCCCCCCCCCCCCCC(=O)O)C(=O)O)C(=O)N[C@@H](CCC(N)=O)C(=O)N[C@H](C(=O)N[C@@H](CC(C)C)C(=O)N[C@@H](CC(C)C)C(=O)N[C@@H](CCC(=O)O)C(=O)N[C@@H](CCC(N)=O)C(=O)N[C@@H](CCC(=O)O)C(=O)N[C@@H](CCCNC(=N)N)C(=O)N[C@@H](CCC(N)=O)C(=O)N[C@@H](CCCCN)C(=O)NC(C)(C)C(=O)N[C@@H](CCC(N)=O)C(=O)N[C@@H](CCCNC(=N)N)C(=O)N[C@@H](CCC(=O)O)C(=O)N[C@@H](CCC(N)=O)C(=O)N[C@@H](C)C(=O)N[C@@H](CCC(=O)O)C(=O)N[C@@H](CCCCN)C(=O)N[C@@H](CC(N)=O)C(=O)N[C@@H](CCCCN)C(=O)N[C@@H](CCC(N)=O)C(=O)N[C@H](C(=O)N[C@@H](CC(C)C)C(=O)N[C@@H](CCC(=O)O)C(=O)N[C@@H](CCC(N)=O)C(=O)N[C@H](C(N)=O)C(C)C)[C@@H](C)CC)[C@@H](C)CC)[C@@H](C)CC)C(C)C)C(C)C

Key:
[1] = biological target: rat CRF2R α receptor (rat, UniProt P47866 20-411); test: cell-based or functional assay
[2] = biological target: T1, anti-target CRF1R receptor (UniProt P34998 24-415, limits assumed); test: cell-based or functional assay
T1 sequence (looked up): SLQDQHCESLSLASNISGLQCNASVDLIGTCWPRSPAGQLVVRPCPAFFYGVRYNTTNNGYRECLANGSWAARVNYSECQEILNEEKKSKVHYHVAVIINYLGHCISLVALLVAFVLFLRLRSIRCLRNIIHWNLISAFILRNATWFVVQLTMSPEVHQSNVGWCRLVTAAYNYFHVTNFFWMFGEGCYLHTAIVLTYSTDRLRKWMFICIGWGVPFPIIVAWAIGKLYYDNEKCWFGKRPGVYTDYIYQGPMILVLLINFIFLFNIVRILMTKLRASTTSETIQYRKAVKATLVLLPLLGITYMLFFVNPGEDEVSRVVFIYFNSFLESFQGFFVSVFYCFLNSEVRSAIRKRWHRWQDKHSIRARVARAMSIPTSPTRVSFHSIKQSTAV

Sequence of rat CRF2R α receptor (P47866 20-411): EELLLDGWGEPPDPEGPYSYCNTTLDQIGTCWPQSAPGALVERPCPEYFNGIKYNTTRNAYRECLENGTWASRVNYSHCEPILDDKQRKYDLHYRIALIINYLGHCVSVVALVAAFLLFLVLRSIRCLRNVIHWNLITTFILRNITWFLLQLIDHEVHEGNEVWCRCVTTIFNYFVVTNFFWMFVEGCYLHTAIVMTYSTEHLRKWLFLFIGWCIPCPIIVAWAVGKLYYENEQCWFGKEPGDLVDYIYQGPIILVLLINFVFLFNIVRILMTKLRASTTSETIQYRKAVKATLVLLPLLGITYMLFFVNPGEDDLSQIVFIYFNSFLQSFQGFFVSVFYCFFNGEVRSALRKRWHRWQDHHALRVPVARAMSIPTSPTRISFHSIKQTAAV

| Binder | EC50 [nM], 0% HSA (cAMP, A7R5 cells) [1] | EC50[nM] 0% HSA (cAMP, CRF1R-overexpression CHO cells) [2] | Emax (%) (cAMP, CRF1R-overexpression CHO cells) [2] |
| --- | --- | --- | --- |
| B1 | 0.22 nM | > 1000 nM | 1.03% |
| B2 | 9.99 nM | > 1000 nM | 5.94% |
| B3 | 2.41 nM | > 1000 nM | 26.9% |
| B4 | 76.9 nM | > 1000 nM | -0.46% |
| B5 | 12.6 nM | > 1000 nM | 25.8% |
